# B1: F1*; the commonest letter at each place (parent)
# chain: GAGACCGCAACTGAAAAGTTGTTATCACTTGTCGTAAGACACTTTGGATGGGTTGAAGTTCTGCACGTAGAAGCAAAAGGC
# Variants of: B1
# Assay: fraction ligated after 30 min (ligated reads / total reads); higher = more ligase activity
# Conditions: with F1*sub RNA substrate (template-directed ligation), 42 °C
# Procedure: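 Chip-synthesised pool of F1* ligase ribozyme variants (all single and double substitutions, single, double and triple deletions in the catalytic core and GAA bulge, plus designed variants) was transcribed with T7 and reacted as a pool with excess substrate F1*sub for 30 min at 42 C in 50 mM EPPS pH 8.5, 25 mM MgCl2. Ligated and unligated bands were separated by PAGE, barcoded by RT and deep sequenced; fraction ligated = ligated reads / total reads per variant, relative activity = FL / FL of wild type (0.826). Sequences are the DNA template of the ribozyme.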
row,Variant,fraction ligated
1,GAGACCGCAACTGAAAAGTTGTTATTACTTGTCGTAAGACACTGTGGATGGGTTGAAGTTCTGCACGTAGAAGCAAAAGGC [C26T T44G],0.836
2,GAGACCGCAACTGAAAAGTTGTTATTACTTGTCGTAAGACACTATGGATGGGTTGAAGTTCTGCACGTAGAAGCAAAAGGC [C26T T44A],0.845
3,GAGACCGCAACTGAAAAGTTGTTATTACTTGTCGTAAGACACTCTGGATGGGTTGAAGTTCTGCACGTAGAAGCAAAAGGC [C26T T44C],0.822
4,GAGACCGCAACTGAAAAGTTGTTATTACTTGTCGTAAGACGCTTTGGATGGGTTGAAGTTCTGCACGTAGAAGCAAAAGGC [C26T A41G],0.813
5,GAGACCGCAACTGAAAAGTTGTTATTACTTGTCGTAAGACTCTTTGGATGGGTTGAAGTTCTGCACGTAGAAGCAAAAGGC [C26T A41T],0.796
6,GAGACCGCAACTGAAAAGTTGTTATTACTTGTCGTAAGACCCTTTGGATGGGTTGAAGTTCTGCACGTAGAAGCAAAAGGC [C26T A41C],0.771
7,GAGACCGCAACTGAAAAGTTGTTATTACTCGTCGTAAGACACTTTGGATGGGTTGAAGTTCTGCACGTAGAAGCAAAAGGC [C26T T30C],0.839
8,GAGACCGCAACTGAAAAGTTGTTATTACTGGTCGTAAGACACTTTGGATGGGTTGAAGTTCTGCACGTAGAAGCAAAAGGC [C26T T30G],0.861
9,GAGACCGCAACTGAAAAGTTGTTATTACTAGTCGTAAGACACTTTGGATGGGTTGAAGTTCTGCACGTAGAAGCAAAAGGC [C26T T30A],0.832
10,GAGACCGCAACTGAAAAGTTGTTATTACTTGTCGTAAGACACTTTGAATGGGTTGAAGTTCTGCACGTAGAAGCAAAAGGC [C26T G47A],0.843
11,GAGACCGCAACTGAAAAGTTGTTATTACTTGTCGTAAGACACTTTGTATGGGTTGAAGTTCTGCACGTAGAAGCAAAAGGC [C26T G47T],0.182
12,GAGACCGCAACTGAAAAGTTGTTATTACTTGTCGTAAGACACTTTGCATGGGTTGAAGTTCTGCACGTAGAAGCAAAAGGC [C26T G47C],0.0296
13,GAGACCGCAACTGAAAAGTTGTTATTAGTTGTCGTAAGACACTTTGGATGGGTTGAAGTTCTGCACGTAGAAGCAAAAGGC [C26T C28G],0.768
14,GAGACCGCAACTGAAAAGTTGTTATTATTTGTCGTAAGACACTTTGGATGGGTTGAAGTTCTGCACGTAGAAGCAAAAGGC [C26T C28T],0.733
15,GAGACCGCAACTGAAAAGTTGTTATTAATTGTCGTAAGACACTTTGGATGGGTTGAAGTTCTGCACGTAGAAGCAAAAGGC [C26T C28A],0.795
16,GAGACCGCAACTGAAAAGTTGTTATTACTTGTCGGAAGACACTTTGGATGGGTTGAAGTTCTGCACGTAGAAGCAAAAGGC [C26T T35G],0.817
17,GAGACCGCAACTGAAAAGTTGTTATTACTTGTCGCAAGACACTTTGGATGGGTTGAAGTTCTGCACGTAGAAGCAAAAGGC [C26T T35C],0.792

row,Variant,fraction ligated
1,GAGACCGCAACTGAAAAGTTGTTATTACTTGTCGAAAGACACTTTGGATGGGTTGAAGTTCTGCACGTAGAAGCAAAAGGC [C26T T35A],0.854
2,GAGACCGCAACTGAAAAGTTGTTATTACTTGTCTTAAGACACTTTGGATGGGTTGAAGTTCTGCACGTAGAAGCAAAAGGC [C26T G34T],0.812
3,GAGACCGCAACTGAAAAGTTGTTATTACTTGTCCTAAGACACTTTGGATGGGTTGAAGTTCTGCACGTAGAAGCAAAAGGC [C26T G34C],0.855
4,GAGACCGCAACTGAAAAGTTGTTATTACTTGTCATAAGACACTTTGGATGGGTTGAAGTTCTGCACGTAGAAGCAAAAGGC [C26T G34A],0.832
5,GAGACCGCAACTGAAAAGTTGTTATTACTTGTCGTAAGACACTTTCGATGGGTTGAAGTTCTGCACGTAGAAGCAAAAGGC [C26T G46C],0.81
6,GAGACCGCAACTGAAAAGTTGTTATTACTTGTCGTAAGACACTTTTGATGGGTTGAAGTTCTGCACGTAGAAGCAAAAGGC [C26T G46T],0.758
7,GAGACCGCAACTGAAAAGTTGTTATTACTTGTCGTAAGACACTTTAGATGGGTTGAAGTTCTGCACGTAGAAGCAAAAGGC [C26T G46A],0.835
8,GAGACCGCAACTGAAAAGTTGTTATTACTTGTCGTAAGACACTTAGGATGGGTTGAAGTTCTGCACGTAGAAGCAAAAGGC [C26T T45A],0.779
9,GAGACCGCAACTGAAAAGTTGTTATTACTTGTCGTAAGACACTTGGGATGGGTTGAAGTTCTGCACGTAGAAGCAAAAGGC [C26T T45G],0.28
10,GAGACCGCAACTGAAAAGTTGTTATTACTTGTCGTAAGACACTTCGGATGGGTTGAAGTTCTGCACGTAGAAGCAAAAGGC [C26T T45C],0.524
11,GAGACCGCAACTGAAAAGTTGTTATTACTTGTCGTAAGACACTTTGGATCGGTTGAAGTTCTGCACGTAGAAGCAAAAGGC [C26T G50C],0.0206
12,GAGACCGCAACTGAAAAGTTGTTATTACTTGTCGTAAGACACTTTGGATTGGTTGAAGTTCTGCACGTAGAAGCAAAAGGC [C26T G50T],0.238
13,GAGACCGCAACTGAAAAGTTGTTATTACTTGTCGTAAGACACTTTGGATAGGTTGAAGTTCTGCACGTAGAAGCAAAAGGC [C26T G50A],0.0828
14,GAGACCGCAACTGAAAAGTTGTTATTACTTGTCGTAAAACACTTTGGATGGGTTGAAGTTCTGCACGTAGAAGCAAAAGGC [C26T G38A],0.823
15,GAGACCGCAACTGAAAAGTTGTTATTACTTGTCGTAATACACTTTGGATGGGTTGAAGTTCTGCACGTAGAAGCAAAAGGC [C26T G38T],0.478
16,GAGACCGCAACTGAAAAGTTGTTATTACTTGTCGTAACACACTTTGGATGGGTTGAAGTTCTGCACGTAGAAGCAAAAGGC [C26T G38C],0.81
17,GAGACCGCAACTGAAAAGTTGTTATTACTTGTCGTAAGTCACTTTGGATGGGTTGAAGTTCTGCACGTAGAAGCAAAAGGC [C26T A39T],0.823

# — the supplement of paper PMC6755084
